The target of experiment [1] is T1, human DLL3 (Homo sapiens, UniProt Q9NYJ7).
T1 construct: purchased ACRO DLL3-H52H4
T1 sequence (Q9NYJ7 27-492 limits assumed): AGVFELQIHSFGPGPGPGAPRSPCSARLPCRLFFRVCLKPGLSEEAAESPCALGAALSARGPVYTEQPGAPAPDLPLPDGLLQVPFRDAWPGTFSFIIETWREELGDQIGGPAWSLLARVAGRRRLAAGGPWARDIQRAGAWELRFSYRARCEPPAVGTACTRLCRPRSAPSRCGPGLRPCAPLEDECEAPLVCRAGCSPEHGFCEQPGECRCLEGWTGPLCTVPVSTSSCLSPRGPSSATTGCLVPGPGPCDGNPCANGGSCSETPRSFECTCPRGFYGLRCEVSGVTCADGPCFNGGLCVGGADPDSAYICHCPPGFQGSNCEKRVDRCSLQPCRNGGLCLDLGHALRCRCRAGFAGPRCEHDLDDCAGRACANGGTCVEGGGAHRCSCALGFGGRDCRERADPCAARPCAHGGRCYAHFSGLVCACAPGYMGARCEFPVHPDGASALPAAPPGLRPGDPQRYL
The experiment in a line: Biacore antibody affinity assay, human DLL3. The format is binding. The text has this:
(§1) Test antibodies were affinity-captured with a Protein A biosensor chip (Cat. #29127556, Cytiva) for 18 seconds, and then the antigens human DLL3 (ACRO, DLL3-H52H4), cynomolgus monkey DLL3 (KACTUS, DLL-RM103), and mouse DLL3 (KACTUS, DLL-MM103) were allowed to flow over the surface of the chip for 180 seconds, followed by 600 seconds of dissociation. Reaction signals were detected in real time using a Biacore 8K (Cytiva) instrument to obtain association and dissociation curves. After the dissociation in each experimental cycle, the biosensor chip was washed and regenerated with a 10 mM glycine-hydrochloric acid solution (pH 1.5) (Cat. #BR-1003-54, Cytiva). A 1:1 model was fit to the data. The results are shown in Table 12-1, Table 12-2, and Table 12-3.

For experiment [2], the target named is T2, Human DLL3 full-length protein on cells (human, UniProt Q9NYJ7 27-618).
T2 construct: H1184 and DMS53 express DLL3 themselves; The cell line is named under assay; also called H1184 cells; DLL3/H82
T2 sequence: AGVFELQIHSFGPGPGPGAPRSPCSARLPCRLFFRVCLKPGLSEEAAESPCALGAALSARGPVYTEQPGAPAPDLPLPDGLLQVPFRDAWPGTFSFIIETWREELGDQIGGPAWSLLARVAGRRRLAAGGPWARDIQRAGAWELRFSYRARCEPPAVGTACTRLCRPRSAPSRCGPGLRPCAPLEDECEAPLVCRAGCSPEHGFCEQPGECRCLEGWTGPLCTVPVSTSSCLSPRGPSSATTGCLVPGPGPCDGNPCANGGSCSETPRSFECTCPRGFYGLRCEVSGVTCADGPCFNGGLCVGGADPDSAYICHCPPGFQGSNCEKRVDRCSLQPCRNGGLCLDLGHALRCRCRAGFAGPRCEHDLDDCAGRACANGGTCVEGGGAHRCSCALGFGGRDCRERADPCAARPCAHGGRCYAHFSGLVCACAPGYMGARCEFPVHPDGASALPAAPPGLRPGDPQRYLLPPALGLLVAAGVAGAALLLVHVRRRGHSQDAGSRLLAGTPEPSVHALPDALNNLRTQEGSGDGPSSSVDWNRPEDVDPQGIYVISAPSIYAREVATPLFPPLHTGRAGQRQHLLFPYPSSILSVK
Nature of the experiment: FACS on DLL3/H82 cells. As to the method: Cells of the DLL3-expressing small cell lung cancer cell lines H1184 (ATCC, Cat. No. CRL-5858), DLL3/H82, cynoDLL3/CHO-s, and RatDLL3/CHO-s were suspended at 1×10^6/mL in FACS buffer (1% BSA+pH 7.4 PBS), and the cell suspensions were added to a 96-well round-bottom plate (Corning, 3795) at 100 μL/well. The plate was centrifuged at 300 g for 5 min, and the supernatant was removed. Different concentrations of test antibodies were added at 100 μL/well. The plate was incubated in the dark in a refrigerator at 4° C. for 1 h. After 3 washes by centrifugation at 300 g, working concentrations of APC anti-human IgG Fc (BioLegend, 410712) or PE F(ab′)2-goat anti-human IgG (invitrogen, H10104) were added. The plate was incubated in the dark in a refrigerator at 4° C. for 40 min. After 3 washes by centrifugation at 300 g, the geometric mean fluorescence intensity was measured on an Invitrogen flow cytometer, and the EC50 values of the antibodies in binding to DLL3-expressing cells were calculated.

The target of experiment [3] is T3, human DLL3 (ACRO, DLL3-H52H4) (human, UniProt Q9NYJ7 27-479).
T3 construct: bought antigen of the Biacore assay; construct not described
T3 sequence (looked up): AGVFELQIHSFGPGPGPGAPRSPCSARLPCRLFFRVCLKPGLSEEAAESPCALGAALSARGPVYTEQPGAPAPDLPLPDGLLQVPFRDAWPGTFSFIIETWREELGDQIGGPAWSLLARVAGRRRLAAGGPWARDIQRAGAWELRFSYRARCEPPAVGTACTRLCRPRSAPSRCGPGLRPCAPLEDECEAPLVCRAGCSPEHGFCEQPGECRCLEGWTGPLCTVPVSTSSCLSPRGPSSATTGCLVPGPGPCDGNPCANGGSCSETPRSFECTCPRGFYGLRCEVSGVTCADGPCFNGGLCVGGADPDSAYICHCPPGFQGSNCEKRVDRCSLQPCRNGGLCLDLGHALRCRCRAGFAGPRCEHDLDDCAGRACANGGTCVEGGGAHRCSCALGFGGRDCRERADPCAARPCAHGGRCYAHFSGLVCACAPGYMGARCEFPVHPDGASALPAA
Nature of the experiment: SPR (Biacore 8K), antibody captured on Protein A chip, 1:1 fit.
Text: as §1

Numbering of substitutions follows the chain as printed.

B1: hAb6L3H2: humanized antibody of mAb6: hAb6VH2 (SEQ ID NO: 33) + hAb6VL3 (SEQ ID NO: 47), constant regions SEQ ID NO: 28/29 (antibody, V domains shown)
VH: EVQLVQSGAEVKKPGASVKVSCKASGYTFTDYYMNWVRQAPGQRLEWMGIINPYSGVTIYNHKFKGRVTLTVDKSANTAYMELSSLRSEDTAVYYCARQDSLLDYAMDYWGQGTTVTVSS
VL: DIQMTQSPSSLSASVGDRVTITCHASQGISGNMGWLQQKPGKSFKGLIYHGANLEDGVPSRFSGSGSGADYTLTISSLQPEDFATYYCVQYAQFPYTFGGGTKVEIK
modifications: constant regions SEQ ID 28/29; hAb6 VH2; hAb6 VL3
B1: in experiment [1], the “ka” value came out at 716000 M⁻¹ s⁻¹ and the “kd” value is 0.00114 s⁻¹.

B2: hAb6L4H6: humanized antibody of mAb6: hAb6VH6 (SEQ ID NO: 37) + hAb6VL4 (SEQ ID NO: 48), constant regions SEQ ID NO: 28/29 (antibody, V domains shown)
VH: EVQLVQSGSELKKPGASVKVSCKASGYTFTDYYMNWVRQAPGQGLEWMGIINPYSGVTIYNHKFKGRFVLSVDKSSNTAYLQISSLKAEDTAVYYCARQDSLLDYAMDYWGQGTTVTVSS
VL: B1 VL with S43A, F44P, T85D
modifications: constant regions SEQ ID 28/29; hAb6 VH6; hAb6 VL4
In the case of B2, in experiment [1], the “ka” value came out at 1.91e+06 M⁻¹ s⁻¹ and the “kd” value stood at 0.000811 s⁻¹.

B3: hAb6L4H4: humanized antibody of mAb6: hAb6VH4 (SEQ ID NO: 35) + hAb6VL4 (SEQ ID NO: 48), constant regions SEQ ID NO: 28/29 (antibody, V domains shown)
VH: B1 VH with Q43K
VL: B1 VL with S43A, F44P, T85D
modifications: constant regions SEQ ID 28/29; hAb6 VH4; hAb6 VL4
As to B3, in experiment [1], the “ka” value is 743000 M⁻¹ s⁻¹ and the “kd” value was 0.00108 s⁻¹.

B4: hAb6L4H11: humanized antibody of mAb6: hAb6VH11 (SEQ ID NO: 42) + hAb6VL4 (SEQ ID NO: 48), constant regions SEQ ID NO: 28/29 (antibody, V domains shown)
VH: B2 VH with R38K
VL: B1 VL with S43A, F44P, T85D
modifications: constant regions SEQ ID 28/29; hAb6VH11; hAb6 VL4
As to B4, in experiment [1], the “ka” value came to 2.14e+06 M⁻¹ s⁻¹ and the “kd” value was 0.000672 s⁻¹.

B5: hAb6L3H3: humanized antibody of mAb6: hAb6VH3 (SEQ ID NO: 34) + hAb6VL3 (SEQ ID NO: 47), constant regions SEQ ID NO: 28/29 (antibody, V domains shown)
VH: B1 VH with M48I, V68A
VL: B1 VL
modifications: constant regions SEQ ID 28/29; hAb6 VH3; hAb6 VL3
Regarding B5, in experiment [1], the “ka” value was 718000 M⁻¹ s⁻¹ and the “kd” value is 0.00135 s⁻¹.

B6: hAb100L1H2 (antibody, human IgG1, kappa, V domains shown)
VH: EVQLVESGGGLVKPGGSLRLSCAASGFTFSDSGMHWIRQAPGKGLEWVAYISSGSSTIHYADTVKGRFTISRDNAKNSLYLQMNSLRAEDTAVYYCASPLYYYGRSYNAVAYWGQGTTVTVSS
VL: DIQMTQSPSSLSASVGDRVTITCHASQNINVWLSWYQQKPGKVPKLLIYKASDLHTGVPSRFSGSGSGTDFTLTISSLQPEDVATYYCQQGQSYPLTFGGGTKVEIKR
In the case of B6, in experiment [2], the response was half-maximal at 0.3 nM (EC50) and the Emax is 14800. In experiment [3], the dissociation constant (Kd) amounted to 0.467 nM, the koff amounted to 0.000365 s⁻¹ and the on-rate (kon) was 781000 M⁻¹ s⁻¹.

B7: M100CHI (antibody, human IgG1, kappa, V domains shown)
VH: B6 VH with R19K, G42E, S78T, Y80F, N84T, A88S, V93M, T118S
VL: B6 VL with T5N, V15L, R18T, V19I, K42N, V43I, D70G, V83I, V104L
notes: murine variable regions on human IgG1 / kappa constant regions; also called chimeric antibody of mAb100
In experiment [2], B7 came in with an EC50 of 0.25 nM and an Emax of 13500. For the same molecule, in experiment [3], the equilibrium dissociation constant (Kd) was found to be 0.528 nM, the koff was found to be 0.000546 s⁻¹ and the kon is 1.03e+06 M⁻¹ s⁻¹.

B8: hAb100L2H4 (antibody, human IgG1, kappa, V domains shown)
VH: B6 VH with A109G
VL: B6 VL with V43I
B8: in experiment [2], a half-maximal effect (EC50) was put at 0.32 nM and the Emax was found to be 13200. In experiment [3], this molecule yielded a dissociation constant (Kd) of 1 nM, a dissociation rate constant (koff) of 0.000655 s⁻¹ and an association rate constant (kon) of 652000 M⁻¹ s⁻¹.

B9: hAb100L2H1 (antibody, human IgG1, kappa, V domains shown)
VH: B6 VH with A49S
VL: B6 VL with V43I
B9: in experiment [2], a half-maximal response (EC50) required 0.29 nM and the Emax stood at 14400. In experiment [3], binding was put at a Kd of 1.1 nM, the koff is 0.000629 s⁻¹ and the kon stood at 572000 M⁻¹ s⁻¹.

B10: hAb100L2H2 (antibody, human IgG1, kappa, V domains shown)
VH: B6 VH
VL: B6 VL with V43I
With B10, in experiment [2], the EC50 is 0.16 nM and the Emax was 14800. For the same molecule, in experiment [3], the affinity, expressed as Kd, was 0.437 nM; the off-rate (koff) is 0.00037 s⁻¹; the kon came to 848000 M⁻¹ s⁻¹.

B11: hAb100L1H4 (antibody, human IgG1, kappa, V domains shown)
VH: B6 VH with A109G
VL: B6 VL
In experiment [2], B11 gave a half-maximal effective concentration (EC50) of 0.22 nM and an Emax of 14900. In experiment [3], this molecule came in with a dissociation constant Kd of 0.729 nM, a koff of 0.000254 s⁻¹ and an association rate constant (kon) of 348000 M⁻¹ s⁻¹.

B12: hAb100L1H3 (antibody, human IgG1, kappa, V domains shown)
VH: B6 VH with Y102H
VL: B6 VL
Regarding B12, in experiment [2], a half-maximal response (EC50) required 0.25 nM and the Emax turned out to be 14900. In experiment [3], this molecule had a Kd of 0.424 nM, an off-rate (koff) of 0.000352 s⁻¹ and a kon of 832000 M⁻¹ s⁻¹.

B13: hAb100L2H3 (antibody, human IgG1, kappa, V domains shown)
VH: B6 VH with Y102H
VL: B6 VL with V43I
In the case of B13, in experiment [2], a half-maximal effect (EC50) was put at 0.3 nM and the Emax came out at 14800. In experiment [3], this molecule showed a dissociation constant Kd of 0.664 nM, a koff of 0.000268 s⁻¹ and a kon of 404000 M⁻¹ s⁻¹.

(Values after US20250057968A1, “ANTI-DLL3 ANTIBODY AND PHARMACEUTICAL USE THEREOF, AND ANTIBODY-DRUG CONJUGATE CONTAINING ANTI-DLL3 ANTIBODY” (Jiangsu Hengrui Pharmaceuticals Co., Ltd., priority 2021, published 2025).)
